Reference: the supplement of paper PMC9732359
± gives the uncertainty stated by the source.

Assay: protein stability index of a GFP-peptide fusion (yeast GPS) (PSI 1-4); higher = more stable; sorted into four equal gates, so the index is relative within each strain
Conditions: doa10∆
In short: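 Plasmids in a pooled yeast library fused tiled 17-residue yeast protein peptides downstream of GFP and also expressed Cherry. Mid-log cultures grown without leucine were sorted into four equal gates by GFP/Cherry fluorescence ratio. Each gate's plasmids were PCR-amplified and Illumina-sequenced, and reads were matched to strains by barcodes. The protein stability index is derived by multiplying each gate's read frequency by its gate number and summing the results.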

Sequence | protein stability index
KPLTENCKKKKKRKKKN [RMP1] | 2.97 ± 0.19
KPNIILDEDDTNDGIER [RPC31] | 3.42 ± 0.076
KPQFENHVKQFYERLDK [MED11] | 2.87 ± 0.12
KPTREPTPSVKTEPVGT [RPC53] | 3.15 ± 0.22
KQAHEKLDASKKQQAAL [YIL149C/MLP2] | 3.08 ± 0.064
KQENETMQPPYIQERLK [MED11] | 2.88 ± 0.055
KQFLTKDLKFPLPHRVQ [RPL20A] | 2.67 ± 0.075
KQIIVTRKAMLDPLEVH [PRP8] | 3.11 ± 0.094
KQLTLLRSKLFQFKLLQ [SMC4] | 1.93 ± 0.051
KRANNIRKFFGLSKEDD [RPS6A] | 3.39 ± 0.17
KRELKQLLEKAPIPIRE [BRR2] | 1.94 ± 0.05
KRELKRAQEEVKRIQSV [RPT3] | 3.23 ± 0.096
KRIHSVRTRGGNKKYRA [RPS8A] | 2.509 ± 0.024
KRKLLEHRRYDDQLKQR [RPT4] | 2.04 ± 0.27
KRLADGLSVTQKVFVRS [DIS3] | 1.85 ± 0.077
KRMLLSLSEFARRRQPT [SNF2] | 2.26 ± 0.15
KRNGSTLEQKVNLENPI [FAS1] | 2.2 ± 0.098
KRNKLLTIFDSVDESAR [YJL039C/NUP192] | 2.26 ± 0.07
KRRFDPSSSDSNGPRAA [RRP6] | 3.25 ± 0.073
KRTICKKCHRLLWTPKK [RPR2] | 2.42 ± 0.051
KRVSGTSQHSDSLTQNN [YOR098C/NUP1] | 2.5 ± 0.088
KSESPSEVLVDTLDSKS [ISW2] | 2.98 ± 0.067
KSFANHTEDEQIEKKKI [SIR4] | 2.96 ± 0.14
KSGKTIVITSITGGIIE [RRP43] | 1.6 ± 0.072

Sequence | protein stability index
KSHNAHVRCGTAFALGI [RPN2] | 1.72 ± 0.27
KSLEEQEYAIEMKIGSI [SMC1] | 2.71 ± 0.11
KSNDSEGDFLKSIIGKL [POP1] | 1.28 ± 0.12
KSSSNRSCVSNSNENGT [RPN4] | 3.02 ± 0.06
KTAEQVAAERAARKAAN [RPL7A] | 2.94 ± 0.091
KTAFKPHELTESVLPAA [QCR2] | 2.36 ± 0.049
KTANSSSDAFEKLKVNM [YIL149C/MLP2] | 2.46 ± 0.053
KTERVEDQKVVDKALLA [RPL6B] | 1.52 ± 0.17
KTFCEDPFSDVDDDQDY [GRR1] | 3.46 ± 0.17
KTFDYVSDHLDAIYREL [SMC1] | 3.31 ± 0.096
KTKKLNLSAFKIVYIAP [BRR2] | 2.13 ± 0.056
KTLKLARAPKYASKAVP [RPL25] | 2.29 ± 0.06
KTNKISILKRHSFAVLL [NUT1] | 2.03 ± 0.11
KTSEKSENHTESDAPPK [YOR098C/NUP1] | 2.52 ± 0.13
KTSSGSYNYVENGIEVE [ITC1] | 3.31 ± 0.18
KTTYYYYNEEGIHILLY [RPC82] | 1.9 ± 0.12
KVATEKDFLKAVDKVIS [RPT1] | 3.23 ± 0.074
KVDIPLEVVQYIEDGRN [NUT2] | 2.46 ± 0.066
KVEKVVKCKMSALQQIM [SNF2] | 2.86 ± 0.12
KVENLDYMYENGKLTSA [YML031W/NDC1] | 3.59 ± 0.25
KVIDLDTKLKAHELQSE [YIL149C/MLP2] | 2.55 ± 0.055
KVIPYSTFRLNLSVTSP [RPO21] | 1.67 ± 0.065
KVMNNSFKLCTLLIAIR [YML103C/NUP188] | 1.47 ± 0.063
KVNSRDDSFFNETNDKK [PRP28] | 2.82 ± 0.12

Sequence | protein stability index
KVPIGLILQRLKDLNLT [RGR1] | 2.48 ± 0.1
KVSPEELPLVITMPATN [ARP7] | 2.64 ± 0.053
KVTCSSNSSSSPPIIDL [MED1] | 2.53 ± 0.044
KVVLKALFLSKINRPPV [RPL18A] | 2.28 ± 0.12
KWGRNQPVNINLDSSIT [YMR129W/POM152] | 2.54 ± 0.094
KYFTESDIPVSENVFEG [SSN3] | 3.06 ± 0.11
KYHKEQFIKSNFEKILL [SRB8] | 2.21 ± 0.085
KYPLGHFVRDLGTIESA [DIS3] | 2.56 ± 0.097
KYVLITGAGKGSIGAEV [FAS2] | 3.22 ± 0.24
LAFNYITYDKQEPSASQ [SRP68] | 3.19 ± 0.048
LAGVLYESRNVAKRRFE [RRP6] | 2.76 ± 0.066
LAKKTHKQELQDLILDL [SMC4] | 3.07 ± 0.083
LAKLVSTIDANFADKYD [RPL8A] | 2.41 ± 0.14
LALKLELLDFLTSNLSN [YJL039C/NUP192] | 2.55 ± 0.053
LALSGTSASNTSMNGVH [SNF5] | 2.48 ± 0.073
LAREVPQQSGKKLLINK [DPB4] | 1.43 ± 0.092
LARSGLRIGRIEDVTPV [RPS14B] | 1.63 ± 0.046
LASKAARKSAPSTGGVK [HHT1] | 2.89 ± 0.15
LATLHYQKKQYKDSLAL [RPN6] | 1.91 ± 0.28
LCDIDEVSDFDEMYELT [DIB1] | 2.43 ± 0.19
LCMDSSYIGTIIVKDKS [POP1] | 1.2 ± 0.091
LDEDDVNADDDDFMHSE [RPB4] | 2.94 ± 0.096
LDENLNSLSSNLSSLIV [YJL041W/NSP1] | 2.41 ± 0.04
LDIEKEAPAGNIDTITD [MCD1] | 2.84 ± 0.081

Same assay, conditions: pdr5∆

Sequence | protein stability index
KPLTENCKKKKKRKKKN [RMP1] | 1.89 ± 0.28
KPNIILDEDDTNDGIER [RPC31] | 3.27 ± 0.085
KPQFENHVKQFYERLDK [MED11] | 2.46 ± 0.19
KPTREPTPSVKTEPVGT [RPC53] | 3.06 ± 0.26
KQAHEKLDASKKQQAAL [YIL149C/MLP2] | 2.88 ± 0.052
KQENETMQPPYIQERLK [MED11] | 3.06 ± 0.054
KQFLTKDLKFPLPHRVQ [RPL20A] | 2.78 ± 0.057
KQIIVTRKAMLDPLEVH [PRP8] | 3.13 ± 0.071
KQLTLLRSKLFQFKLLQ [SMC4] | 1.88 ± 0.048
KRANNIRKFFGLSKEDD [RPS6A] | 3.22 ± 0.11
KRELKQLLEKAPIPIRE [BRR2] | 2.22 ± 0.053
KRELKRAQEEVKRIQSV [RPT3] | 3.39 ± 0.14
KRIHSVRTRGGNKKYRA [RPS8A] | 2.621 ± 0.022
KRKLLEHRRYDDQLKQR [RPT4] | 2.1 ± 0.22
KRLADGLSVTQKVFVRS [DIS3] | 2.38 ± 0.076
KRMLLSLSEFARRRQPT [SNF2] | 2.63 ± 0.13
KRNGSTLEQKVNLENPI [FAS1] | 2.37 ± 0.12
KRNKLLTIFDSVDESAR [YJL039C/NUP192] | 2.37 ± 0.072
KRRFDPSSSDSNGPRAA [RRP6] | 3.31 ± 0.089
KRTICKKCHRLLWTPKK [RPR2] | 2.45 ± 0.05
KRVSGTSQHSDSLTQNN [YOR098C/NUP1] | 2.71 ± 0.055
KSESPSEVLVDTLDSKS [ISW2] | 3.11 ± 0.068
KSFANHTEDEQIEKKKI [SIR4] | 2.28 ± 0.087
KSGKTIVITSITGGIIE [RRP43] | 1.84 ± 0.077
KSHNAHVRCGTAFALGI [RPN2] | 2.41 ± 0.1

Sequence | protein stability index
KSLEEQEYAIEMKIGSI [SMC1] | 3.23 ± 0.18
KSNDSEGDFLKSIIGKL [POP1] | 2.91 ± 0.088
KSSSNRSCVSNSNENGT [RPN4] | 3.08 ± 0.07
KTAEQVAAERAARKAAN [RPL7A] | 2.92 ± 0.06
KTAFKPHELTESVLPAA [QCR2] | 2.69 ± 0.051
KTANSSSDAFEKLKVNM [YIL149C/MLP2] | 2.54 ± 0.065
KTERVEDQKVVDKALLA [RPL6B] | 1.43 ± 0.089
KTFCEDPFSDVDDDQDY [GRR1] | 3.31 ± 0.099
KTFDYVSDHLDAIYREL [SMC1] | 3.34 ± 0.12
KTKKLNLSAFKIVYIAP [BRR2] | 2.1 ± 0.052
KTLKLARAPKYASKAVP [RPL25] | 2.31 ± 0.056
KTNKISILKRHSFAVLL [NUT1] | 2.4 ± 0.099
KTSEKSENHTESDAPPK [YOR098C/NUP1] | 2.75 ± 0.13
KTSSGSYNYVENGIEVE [ITC1] | 3.2 ± 0.2
KVAKKRLGSFTRAKAKV [RPL36A] | 2.64 ± 0.21
KVATEKDFLKAVDKVIS [RPT1] | 3.26 ± 0.094
KVDIPLEVVQYIEDGRN [NUT2] | 1.59 ± 0.065
KVEKVVKCKMSALQQIM [SNF2] | 3.05 ± 0.24
KVENLDYMYENGKLTSA [YML031W/NDC1] | 3.3 ± 0.12
KVIDLDTKLKAHELQSE [YIL149C/MLP2] | 2.73 ± 0.053
KVIPYSTFRLNLSVTSP [RPO21] | 1.53 ± 0.075
KVKNFGVWVRYDSRSGT [RPL20A] | 2.74 ± 0.1
KVMNNSFKLCTLLIAIR [YML103C/NUP188] | 1.69 ± 0.087
KVNSRDDSFFNETNDKK [PRP28] | 3.1 ± 0.11
KVPIGLILQRLKDLNLT [RGR1] | 2.57 ± 0.09

Sequence | protein stability index
KVSPEELPLVITMPATN [ARP7] | 2.68 ± 0.065
KVTCSSNSSSSPPIIDL [MED1] | 2.76 ± 0.044
KVVLKALFLSKINRPPV [RPL18A] | 1.53 ± 0.067
KWGRNQPVNINLDSSIT [YMR129W/POM152] | 2.7 ± 0.076
KYFTESDIPVSENVFEG [SSN3] | 3.25 ± 0.098
KYHKEQFIKSNFEKILL [SRB8] | 2.32 ± 0.047
KYPLGHFVRDLGTIESA [DIS3] | 2.43 ± 0.1
KYVLITGAGKGSIGAEV [FAS2] | 3.27 ± 0.12
LAFNYITYDKQEPSASQ [SRP68] | 3.15 ± 0.056
LAGVLYESRNVAKRRFE [RRP6] | 3.12 ± 0.061
LAKKTHKQELQDLILDL [SMC4] | 3.25 ± 0.088
LAKLVSTIDANFADKYD [RPL8A] | 2.8 ± 0.14
LALAETLKLRARQRGKL [SRP68] | 2.64 ± 0.21
LALKLELLDFLTSNLSN [YJL039C/NUP192] | 2.26 ± 0.043
LALSGTSASNTSMNGVH [SNF5] | 2.73 ± 0.16
LAREVPQQSGKKLLINK [DPB4] | 2.06 ± 0.063
LARGHRVEKIPEIPLVV [RPL4A] | 3.42 ± 0.25
LARSGLRIGRIEDVTPV [RPS14B] | 1.95 ± 0.052
LASKAARKSAPSTGGVK [HHT1] | 3.12 ± 0.12
LATLHYQKKQYKDSLAL [RPN6] | 1.47 ± 0.17
LCDIDEVSDFDEMYELT [DIB1] | 3.08 ± 0.1
LCMDSSYIGTIIVKDKS [POP1] | 1.49 ± 0.048
LDEDDVNADDDDFMHSE [RPB4] | 2.82 ± 0.088
LDENLNSLSSNLSSLIV [YJL041W/NSP1] | 2.54 ± 0.061
LDIEKEAPAGNIDTITD [MCD1] | 3.03 ± 0.066

Same assay, conditions: san1∆

Sequence | protein stability index
KPLTENCKKKKKRKKKN [RMP1] | 1.5 ± 0.14
